Data as given in patent US20240247080A1, “GLP1/GIP/NPY2 RECEPTOR TRIPLE AGONISTS” (Boehringer Ingelheim International GmbH, priority 2022, published 2024).
Residue numbers refer to the chain shown, from its start. Starred links: 1 amine or outer side, 2 acyl side, 3 side chain; linkers in the order of their positions; H or OH if unused. Non-standard residues stand in square brackets, D forms with d. Groups on a side chain read outwards from the residue. No end group written: not given here. *: point of attachment. C18 diacid = O=C(O)CCCCCCCCCCCCCCCCC(=O)*; γGlu = O=C(O)[C@H](CCC(=O)[*:2])N[*:1]; εLys = N[C@@H](CCCCN[*:1])C(=O)[*:2]; AEEA = NCCOCCOCC(=O)O; Aib = CC(C)(N)C(=O)O

T1: human neuropeptide Y2 receptor (human, UniProt P49146 1-381)
T1 sequence (looked up): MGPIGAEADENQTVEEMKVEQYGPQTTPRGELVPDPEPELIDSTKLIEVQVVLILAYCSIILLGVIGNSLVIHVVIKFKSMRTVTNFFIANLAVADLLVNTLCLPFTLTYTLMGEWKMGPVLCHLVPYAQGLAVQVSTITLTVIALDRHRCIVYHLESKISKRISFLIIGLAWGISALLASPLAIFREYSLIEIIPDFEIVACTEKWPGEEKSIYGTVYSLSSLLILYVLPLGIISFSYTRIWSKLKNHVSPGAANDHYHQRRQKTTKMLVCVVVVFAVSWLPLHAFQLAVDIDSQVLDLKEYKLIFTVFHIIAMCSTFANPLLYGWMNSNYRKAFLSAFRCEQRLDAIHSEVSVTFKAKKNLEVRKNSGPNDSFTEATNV

T2: human GIP receptor (human, UniProt P48546 22-466)
T2 sequence (looked up): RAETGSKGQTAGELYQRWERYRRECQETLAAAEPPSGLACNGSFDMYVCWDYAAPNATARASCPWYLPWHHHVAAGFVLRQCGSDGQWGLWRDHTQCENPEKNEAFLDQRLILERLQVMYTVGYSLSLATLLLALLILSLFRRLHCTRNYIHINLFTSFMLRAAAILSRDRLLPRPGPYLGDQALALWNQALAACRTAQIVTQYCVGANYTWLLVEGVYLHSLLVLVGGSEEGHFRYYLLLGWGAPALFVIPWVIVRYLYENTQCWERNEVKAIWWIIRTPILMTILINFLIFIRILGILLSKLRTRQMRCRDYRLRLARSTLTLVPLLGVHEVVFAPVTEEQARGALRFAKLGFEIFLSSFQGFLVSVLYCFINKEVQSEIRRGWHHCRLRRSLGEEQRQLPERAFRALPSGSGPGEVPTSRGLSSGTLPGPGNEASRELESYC

T3: human GIP receptor (human, UniProt P48546 22-466)
T3 sequence (looked up): T2 sequence (looked up)

T4: human neuropeptide Y2 (NPY2) receptor (human, UniProt P49146 1-381)
T4 sequence (looked up): T1 sequence (looked up)

B1: Compound 259 (peptide)
peptide: YXEGTFTSDYSIXLEKQAQXAFVEWLIKGGPSSGASLRHYYNWLTRQRY
modifications: Aib at 2, 13, 20; K28 side chain acylated with C18DA-gGlu-gGlu-gGlu-gGlu-gGlu-gGlu-eLys; C-terminal amide (NH2)
B2: Compound 11 (peptide)
peptide: B1 peptide with E24Q, S32E, G34P
modifications: Aib at 2, 13, 20; K28 side chain: C20DA-gGlu-gGlu-gGlu-gGlu-gGlu; C-terminal NH2
B3: Compound 10 (peptide)
peptide: B1 peptide with G34P, A35E, L37X
modifications: Aib at 2, 13, 20, 37; K28 side chain: C20DA-gGlu-gGlu-gGlu-gGlu-gGlu-gGlu-eK; C-terminal NH2
B4: Compound 87 (peptide)
peptide: B1 peptide with E3D
modifications: Aib at 2, 13, 20; K28 side chain: C20DA-gGlu-gGlu-gGlu-gGlu-gGlu-gGlu-eLys; C-terminal NH2
B5: Compound 80 (peptide)
peptide: B1 peptide with S33Y, G34Y, A35V
modifications: Aib at 2, 13, 20; K28 side chain: C20DA-gGlu-gGlu-gGlu-gGlu-gGlu-gGlu-eLys; C-terminal NH2
B6: Compound 260 (peptide)
peptide: B1 peptide
modifications: Aib at 2, 13, 20; K28 side chain acylated with C18DA-gGlu-gGlu-gGlu-gGlu-gGlu-AHX; C-terminal amide (NH2)
B7: Compound 84 (peptide)
peptide: B1 peptide with A35Q
modifications: Aib at 2, 13, 20; K28 side chain: C20DA-gGlu-gGlu-gGlu-gGlu-gGlu-gGlu-eLys; C-terminal NH2
B8: Compound 15 (peptide)
peptide: B1 peptide with E24Q, G34Y, A35V
modifications: Aib at 2, 13, 20; K28 side chain: C20DA-gGlu-gGlu-gGlu-gGlu-gGlu-gGlu-eLys; C-terminal NH2
B9: Compound 12 (peptide)
peptide: B1 peptide with E24Q, S32E, G34P
modifications: Aib at 2, 13, 20; K28 side chain: C18DA-gGlu-gGlu-gGlu-gGlu-gGlu; C-terminal NH2
B10: Compound 9 (peptide)
peptide: B1 peptide with G34Y, A35V, L37I
modifications: Aib at 2, 13, 20; K28 side chain: C20DA-gGlu-gGlu-gGlu-gGlu-gGlu-gGlu-eLys; C-terminal NH2
B11: Compound 17 (peptide)
peptide: B1 peptide with Y41L, W43L, L44X
modifications: Aib at 2, 13, 20, 44; K28 side chain: C20DA-gGlu-gGlu-gGlu-gGlu-gGlu-gGlu-eLys; C-terminal NH2
B12: Compound 86 (peptide)
peptide: B1 peptide with Y41L
modifications: Aib at 2, 13, 20; K28 side chain: C20DA-gGlu-gGlu-gGlu-gGlu-gGlu-gGlu-eLys; C-terminal NH2
B13: Compound 16 (peptide)
peptide: B1 peptide with K16X, Q17E, A21K
modifications: Aib at 2, 13, 16, 20; K28 side chain: C20DA-gGlu-gGlu-gGlu-gGlu-gGlu-gGlu-eLys; C-terminal NH2
B14: Compound 85 (peptide)
peptide: B1 peptide
modifications: Aib at 2, 13, 20; NMeQ 47; K28 side chain: C20DA-gGlu-gGlu-gGlu-gGlu-gGlu-gGlu-eLys; C-terminal NH2
B15: Compound 78 (peptide)
peptide: B1 peptide with E24Q, S33E, G34Y, A35V
modifications: Aib at 2, 13, 20; K28 side chain: C20DA-gGlu-gGlu-gGlu-gGlu-gGlu-gGlu-eLys; C-terminal NH2
B16: Compound 261 (peptide)
peptide: B1 peptide
modifications: Aib at 2, 13, 20; K28 side chain acylated with C18DA-gGlu-gGlu-gGlu-gGlu-gGlu-OEG-OEG; C-terminal amide (NH2)
B17: Compound 79 (peptide)
peptide: B1 peptide with W43L, L44X
modifications: Aib at 2, 13, 20, 44; K28 side chain: C20DA-gGlu-gGlu-gGlu-gGlu-gGlu-gGlu-eLys; C-terminal NH2
B18: Compound 83 (peptide)
peptide: B1 peptide
modifications: Aib at 2, 13, 20; NMeR 48; K28 side chain: C20DA-gGlu-gGlu-gGlu-gGlu-gGlu-gGlu-eLys; C-terminal NH2
B19: Compound 14 (peptide)
peptide: B1 peptide with E24Q, S32R, S33Y, G34Y
modifications: Aib at 2, 13, 20; K28 side chain: C20DA-gGlu-gGlu-gGlu-gGlu-gGlu-gGlu-eLys; C-terminal NH2

What was measured:
Experiment in all cases: cell-based or functional assay
[1] = target: T1, human neuropeptide Y2 receptor
human GIP receptor [2] = target: T2, human GIP receptor
human GLP-1 receptor [3] = target: human GLP-1 receptor (human, UniProt P43220 24-463)
human GIP receptor [4] = target: T3, human GIP receptor; remark: listed apart in the source
human GLP-1 receptor [5] = target: human GLP-1 receptor (human, UniProt P43220 24-463); remark: listed apart in the source
[6] = target: T4, human neuropeptide Y2 (NPY2) receptor

Binder	EC50 hNPY2R 0.5% hP (CreLuc) [1] [nM]	EC50 hNPY2R 100% hP (CreLuc) [1] [nM]	EC50 hGIPR 0.5% hP (CreLuc) (human GIP receptor [2]) [nM]	EC50 hGIPR 100% hP (CreLuc) (human GIP receptor [2]) [nM]	EC50 hGLP1R 0.5% hP (CreLuc) (human GLP-1 receptor [3]) [nM]	EC50 hGLP1R 100% hP (CreLuc) (human GLP-1 receptor [3]) [nM]	EC50, CreLuc assay, 0.5% hP (human GIP receptor [4]) [nM]	EC50, CreLuc assay, 100% hP (human GIP receptor [4]) [nM]	EC50, CreLuc assay, 0.5% hP (human GLP-1 receptor [5]) [nM]	EC50, CreLuc assay, 100% hP (human GLP-1 receptor [5]) [nM]	EC50, CreLuc assay, 0.5% hP [6] [nM]	EC50, CreLuc assay, 100% hP [6] [nM]
B1	10.7	29.3	0.22	0.91	0.09	2.55						
B2							0.17	2.54	0.11	6.69	10.3	51.5
B3							0.07	1.25	0.11	2.59	18.2	42.2
B4							0.58	5.65	0.08	2	20.7	73.4
B5							0.79	6.76	1.6	16.3	12.8	54.8
B6	26.4	69.6	0.31	2.53	0.13	2.78						
B7							0.23	1.43	0.13	2.63	8.31	35.2
B8							0.32	2.43	0.16	4.11	6.01	15.4
B9							0.14	1.8	0.11	4.76	11.9	45.8
B10							0.21	2.03	0.46	6.64	15.2	18.9
B11							0.43	2.23	0.14	2.28	> 100	450
B12							0.48	1.61	0.25	2.47	23.7	53.1
B13							0.66	4.53	1.48	30.3	28.8	197
B14							0.22	1.11	0.15	2.75	10.3	34.4
B15							0.53	6.64	0.64	12.2	12.9	24.6
B16	24.1	64	0.18	1.15	0.15	3.91						
B17							0.29	1.86	0.11	2.09	87.6	265
B18							0.13	1.06	0.17	2.87	28.8	80.6
B19							0.71	2.22	0.4	7.13	6.85	28.5
Y[Aib]EGTFTSDYSI[Aib]LEKQAE[Aib]AFVEWLIK([γGlu-γGlu-γGlu-γGlu-C18 diacid])GGPSEGASLRHYYNWLTRQRY-NH2 (also: TFA salt) [Compound 262]	13.2	58.2	0.08	0.53	0.13	4.28						
Y[Aib]EGTFTSDYSI[Aib]LEKQAQ[Aib]EFVEWLIK([AEEA-AEEA-γGlu-γGlu-γGlu-C18 diacid])GGPESGASLRHYYNWLTRQRY-NH2 (also: TFA salt) [Compound 81]							0.27	1.79	0.6	15.4	11.1	36.4
Y[Aib]EGTFTSDYSI[Aib]LEKQAQ[Aib]AFVEWLIKGGPSSGAS[Aib]RHYYNR[Aib]TRQRY-NH2 (not fully specified (residue 28); also: TFA salt) [Compound 13]							0.09	0.77	0.05	0.92	9.54	31.5
Y[Aib]EGTFTSDYSI[Aib]LEKQAQ[Aib]AFVEWLIK([εLys-γGlu-γGlu-γGlu-γGlu-γGlu-C18 diacid])GGPSEPASLRHYYNWLTRQRY-NH2 (also: TFA salt) [Compound 263]	15.8	83.2	0.12	1.5	0.32	5.21						
